Measured values taken from US20240262917A1 (Dana-Farber, published 2024).
Residue numbers refer to the chain shown, from its start.

B1: Mouse monoclonal anti-ALK 8G7 (antibody, IgG1, V domains shown)
VH: QVQLQQSGAELVRPGASVTLSCKASGYTFTDYEMHWVKQTPVHGLEWIGAIDPETGGSAYNQKFKAKAILTADRSSSTAYMELRSLTSEDSAVYYCTRTRYYGSSPAMDYWGQGTSVTVSS
VL: DIQMTQTTSSLSASLGDRVTISCSASQGIGNYLNWYQQKPDGTVKLLIYYTSSLHSGVPSRFSGSGSGTDYSLTISNLEPEDIATYYCQQYSKLPYTFGGGTKLEIK
notes: constant regions are not; also called Ab 8G7; 8G7 N-terminal anti-ALK antibody
B2: Monoclonal anti-ALK antibody 7F7 (antibody, IgG1, V domains shown)
VH: QVQLQQSGAELVRPGASVTLSCKASGYTFTDYEIHWMKQTPVHGLEWIGTIDPETGGTAYNQKFKGKAILTADKSSSTAYMELRSLTSEDSAVYYCTRCYYGSSWYFDVWGTGTTVTVSS
VL: DIQMTQTTSSLSASLGDRVTISCSASQGISNYLNWYQQKPDGTVKLLIYYTSSLHSGVPSRFSGSGSGTDYSLTISNLELEDIATYYCQQYSKVPRTFGGGTKLEIKR
notes: also called Ab 7F7
B3: Monoclonal anti-ALK antibody 5H3 (antibody, IgG1, V domains shown)
VH: B1 VH
VL: B2 VL with S30G, L80P, V94L, R96Y
notes: The variable part as printed looks identical to that of 8G7; also called Ab 5H3

How the values were obtained:
[1] = molecular target: T1, 140 kDa truncated membrane-bound C-terminal ALK fragment (human, UniProt Q9UM73 655-1620); experiment: western blot of NB cell lysates
T1 construct: also called CTF; 140 kDa fragment
T1 sequence (Q9UM73 655-1620): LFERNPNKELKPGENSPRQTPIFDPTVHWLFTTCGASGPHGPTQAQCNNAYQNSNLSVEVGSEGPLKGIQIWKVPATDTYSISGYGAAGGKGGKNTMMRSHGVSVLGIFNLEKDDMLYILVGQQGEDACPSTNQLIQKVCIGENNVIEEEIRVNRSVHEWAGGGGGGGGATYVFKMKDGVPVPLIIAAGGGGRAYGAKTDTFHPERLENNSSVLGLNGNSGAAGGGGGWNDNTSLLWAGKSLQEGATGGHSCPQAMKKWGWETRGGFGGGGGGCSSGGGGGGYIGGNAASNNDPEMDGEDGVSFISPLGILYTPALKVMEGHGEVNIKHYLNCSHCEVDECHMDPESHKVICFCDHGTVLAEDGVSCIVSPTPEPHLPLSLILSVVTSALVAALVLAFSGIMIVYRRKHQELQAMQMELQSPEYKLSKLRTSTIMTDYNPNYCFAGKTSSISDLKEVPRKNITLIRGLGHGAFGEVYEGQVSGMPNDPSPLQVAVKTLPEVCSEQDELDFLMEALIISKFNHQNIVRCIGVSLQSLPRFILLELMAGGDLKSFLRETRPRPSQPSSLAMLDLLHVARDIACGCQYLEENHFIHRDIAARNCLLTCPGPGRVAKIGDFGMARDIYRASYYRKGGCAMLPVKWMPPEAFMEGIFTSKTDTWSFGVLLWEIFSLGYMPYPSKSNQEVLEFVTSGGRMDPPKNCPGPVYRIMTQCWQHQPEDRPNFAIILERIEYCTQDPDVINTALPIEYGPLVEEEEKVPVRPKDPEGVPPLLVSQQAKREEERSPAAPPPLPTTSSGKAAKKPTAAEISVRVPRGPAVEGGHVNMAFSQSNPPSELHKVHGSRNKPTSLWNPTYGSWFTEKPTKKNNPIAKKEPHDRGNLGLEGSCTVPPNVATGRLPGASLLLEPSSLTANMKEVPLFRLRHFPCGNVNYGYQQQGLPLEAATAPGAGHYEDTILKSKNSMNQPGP

ALK-LF655FY = molecular target: T2, ALK-LF655FY; experiment: immunofluorescence on NIH3T3 cells expressing the construct
T2 construct: also called NIH3T3 ALK LF655FY; MSCV-LF655FY
T2 sequence (receptor chain, as listed by the source): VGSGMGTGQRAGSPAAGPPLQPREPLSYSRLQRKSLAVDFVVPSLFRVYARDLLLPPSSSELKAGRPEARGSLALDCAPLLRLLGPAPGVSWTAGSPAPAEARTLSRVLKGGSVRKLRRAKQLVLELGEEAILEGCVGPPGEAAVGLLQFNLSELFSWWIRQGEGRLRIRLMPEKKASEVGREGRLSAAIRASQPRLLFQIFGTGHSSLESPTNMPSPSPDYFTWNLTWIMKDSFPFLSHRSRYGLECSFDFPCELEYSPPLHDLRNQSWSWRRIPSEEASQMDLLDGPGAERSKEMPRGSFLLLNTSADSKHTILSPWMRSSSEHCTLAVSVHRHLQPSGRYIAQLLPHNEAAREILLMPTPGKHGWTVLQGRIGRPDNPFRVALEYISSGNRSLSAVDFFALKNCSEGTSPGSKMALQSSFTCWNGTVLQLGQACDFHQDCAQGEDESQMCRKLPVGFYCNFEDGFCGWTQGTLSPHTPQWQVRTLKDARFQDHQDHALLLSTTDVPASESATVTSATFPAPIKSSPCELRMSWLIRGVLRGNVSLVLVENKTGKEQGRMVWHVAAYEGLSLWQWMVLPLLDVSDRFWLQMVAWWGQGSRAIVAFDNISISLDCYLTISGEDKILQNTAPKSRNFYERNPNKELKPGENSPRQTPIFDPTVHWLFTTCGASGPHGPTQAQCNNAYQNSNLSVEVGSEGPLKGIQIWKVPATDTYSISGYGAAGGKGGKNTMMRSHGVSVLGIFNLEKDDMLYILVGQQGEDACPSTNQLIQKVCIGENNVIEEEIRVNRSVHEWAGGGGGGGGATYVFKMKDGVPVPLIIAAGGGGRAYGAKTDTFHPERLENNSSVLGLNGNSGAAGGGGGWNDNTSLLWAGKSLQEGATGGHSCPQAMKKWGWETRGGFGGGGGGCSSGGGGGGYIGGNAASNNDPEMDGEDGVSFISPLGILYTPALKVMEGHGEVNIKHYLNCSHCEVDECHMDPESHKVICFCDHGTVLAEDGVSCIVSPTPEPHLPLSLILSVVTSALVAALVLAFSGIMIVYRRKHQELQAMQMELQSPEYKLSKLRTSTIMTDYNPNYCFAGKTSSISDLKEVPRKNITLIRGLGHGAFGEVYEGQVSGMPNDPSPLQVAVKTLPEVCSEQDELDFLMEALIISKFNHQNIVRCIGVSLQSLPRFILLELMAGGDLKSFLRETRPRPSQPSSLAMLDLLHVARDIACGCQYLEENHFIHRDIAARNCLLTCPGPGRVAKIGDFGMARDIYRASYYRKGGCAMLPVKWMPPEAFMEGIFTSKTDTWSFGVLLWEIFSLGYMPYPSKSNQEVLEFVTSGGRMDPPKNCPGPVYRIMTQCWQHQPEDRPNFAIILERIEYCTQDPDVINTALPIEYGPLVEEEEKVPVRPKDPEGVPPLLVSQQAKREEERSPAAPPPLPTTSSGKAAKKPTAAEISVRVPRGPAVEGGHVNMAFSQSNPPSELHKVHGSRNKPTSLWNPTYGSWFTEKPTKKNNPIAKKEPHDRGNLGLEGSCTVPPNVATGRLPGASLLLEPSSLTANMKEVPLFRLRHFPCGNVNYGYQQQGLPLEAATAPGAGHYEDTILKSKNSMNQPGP
Protocol: A 1:100 antibody dilution was used.
Cells (0.5×10⁶ per well) were seeded into six-well plates and grown on glass coverslips for 24 hr. before fixation in 4% paraformaldehyde in PBS for 15 min at room temperature (RT), washed with PBS, permeabilized in 0.1% Triton X-100, and blocked with PBS containing 0.05% Tween-20 and 5% BSA for 1 hr. to block nonspecific binding. […] Images were collected on a Zeiss AXIO Imager Z1 fluorescence microscope. […] After 24 hours, cells were washed once in PBS, fixed in 4% paraformaldehyde in PBS, washed, permeabilized in 0.1% Triton X-100, and blocked in PBS containing 10% horse serum. […] The next day, cells were washed, incubated in goat anti-rabbit IgG secondary antibody (1:1000) for 1 hr. washed, and incubated in Streptavidin-TexasRed (1:1000) for 1 hr. Cover slips were mounted onto slides using mounting medium containing DAPI. Images were collected on a Zeiss AXIO Imager Z1 fluorescence microscope.

ALK-hFc = molecular target: T3, ALK-hFc; experiment: ELISA of hybridoma supernatant on a plate coated with ALK-hFc, detection with anti-mouse kappa light chain antibody; control row Co 0.067
T3 construct: also called ALK ECD-human Fc fusion protein; ALK-ECD-hFc; not shown: Human IgG2 Fc of the vector pFUse-hIgG2-FC2, and any vector-derived junction residues
T3 sequence (chain, as listed by the source limits assumed): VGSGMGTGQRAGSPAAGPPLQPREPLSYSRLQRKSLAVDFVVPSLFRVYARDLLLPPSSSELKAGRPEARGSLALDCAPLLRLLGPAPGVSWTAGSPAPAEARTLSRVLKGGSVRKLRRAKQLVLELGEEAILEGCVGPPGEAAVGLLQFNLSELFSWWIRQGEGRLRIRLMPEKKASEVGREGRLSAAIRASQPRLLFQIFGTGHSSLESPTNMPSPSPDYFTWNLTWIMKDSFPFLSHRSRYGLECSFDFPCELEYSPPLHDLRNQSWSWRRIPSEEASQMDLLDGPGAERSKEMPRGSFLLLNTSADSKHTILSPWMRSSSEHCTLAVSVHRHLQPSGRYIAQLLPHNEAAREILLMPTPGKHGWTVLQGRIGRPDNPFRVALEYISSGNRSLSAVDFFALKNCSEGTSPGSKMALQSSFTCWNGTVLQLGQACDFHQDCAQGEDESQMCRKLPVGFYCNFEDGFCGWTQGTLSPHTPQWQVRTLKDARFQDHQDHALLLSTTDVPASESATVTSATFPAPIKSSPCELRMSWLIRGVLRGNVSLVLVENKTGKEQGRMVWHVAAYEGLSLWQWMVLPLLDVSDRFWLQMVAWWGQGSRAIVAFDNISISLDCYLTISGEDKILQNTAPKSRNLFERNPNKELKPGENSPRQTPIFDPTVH
Protocol: (§1) HAT-selected fused cells were distributed in 96 well plates and the hybridoma supernatants were subjected to several rounds of screening. Initial screening was performed using ELISA against human Fc to test antigen binding with the ALK ECD-human Fc fusion protein. […] These were rescreened by FACS against Ba/F3 and neuroblastoma (NB) cells expressing ALK. […] (A) Binding of hybridoma supernatants using an antigen-binding capture assay. The plate was coated with goat-anti-mouse IgG Fc, incubated with hybridoma supernatants, followed by ALK-HRP and visualized using an HRP substrate. (B) Binding of selected hybridoma supernatants to a human Fc antibody using ELISA screening. Plates were coated with the ALK ECD-human Fc fusion protein (ALK-hFc) together with an irrelevant hFc protein and visualized using an anti-mouse kappa light chain antibody.

Irrel-hFc = molecular target: T4, Irrel-hFc; experiment: ELISA of hybridoma supernatant on a plate coated with an irrelevant hFc protein, detection with anti-mouse kappa light chain antibody; control row Co 0.062
T4 construct: also called irrelevant hFc protein
Protocol: as §1

[2] = molecular target: T5, Full-length human anaplastic lymphoma kinase (ALK) receptor, wild type (human, UniProt Q9UM73 19-1620); experiment: western blot of NB cell lysates
T5 construct: Tested in cell lysates (western blot, IP) and on fixed cells (IF, ICC); HA- or FLAG-tagged in the co-IP dimerisation assay and FLAG-tagged and purified in the MMP-9 cleavage assay; also called WT ALK; ALK WT
T5 sequence (Q9UM73 19-1620 limits assumed): as the sequence (receptor chain, as listed by the source) above, with F637L, Y638F counted along it

Human ALK F1174L = molecular target: T6, Human ALK F1174L (human, UniProt Q9UM73 19-1620); experiment: immunofluorescence on SHEP cells expressing ALK F1174L, 1:100 dilution
T6 construct: Expressed in SHEP neuroblastoma cells (IF) and in tumours of the ALK F1174L/MYCN transgenic mouse (IHC)
T6 sequence (Q9UM73 19-1620 F1174L limits assumed): as the sequence (receptor chain, as listed by the source) above, with F637L, Y638F, F1156L counted along it

[3] = molecular target: T7, Shed ALK extracellular domain fragment (ALK 1-654) (human, UniProt Q9UM73 19-654); experiment: sandwich ELISA, 7F7 capture, 8G7 detection, ALK-ECD protein as the varied antigen
T7 construct: Fragment released into conditioned media or serum by cleavage at Asn654-Leu655; also called SF; secreted extracellular fragment
T7 sequence (Q9UM73 19-654): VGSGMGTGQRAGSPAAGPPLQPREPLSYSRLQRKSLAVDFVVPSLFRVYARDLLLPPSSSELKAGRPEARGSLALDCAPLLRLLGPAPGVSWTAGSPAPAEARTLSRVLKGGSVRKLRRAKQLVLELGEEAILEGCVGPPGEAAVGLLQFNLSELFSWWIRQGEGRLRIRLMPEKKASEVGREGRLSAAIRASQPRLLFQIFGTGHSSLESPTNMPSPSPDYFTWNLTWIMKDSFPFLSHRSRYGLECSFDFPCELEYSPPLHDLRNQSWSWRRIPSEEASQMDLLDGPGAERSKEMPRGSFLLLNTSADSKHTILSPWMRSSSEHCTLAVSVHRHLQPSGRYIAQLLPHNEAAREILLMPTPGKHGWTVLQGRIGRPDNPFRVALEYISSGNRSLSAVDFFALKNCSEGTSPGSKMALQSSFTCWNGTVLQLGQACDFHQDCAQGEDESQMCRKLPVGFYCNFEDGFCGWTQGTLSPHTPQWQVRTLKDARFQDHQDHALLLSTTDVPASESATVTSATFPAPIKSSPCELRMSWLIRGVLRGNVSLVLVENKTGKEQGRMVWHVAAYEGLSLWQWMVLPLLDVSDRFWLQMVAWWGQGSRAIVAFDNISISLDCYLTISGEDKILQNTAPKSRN
Source text: (B) ELISA of the shed ALK ECD protein in sera from patients with neuroblastoma.

Binder	binding result [1]	binding result (ALK-LF655FY)	ELISA reading (name not given) (ALK-hFc)	ELISA reading (name not given) (Irrel-hFc)	binding result [2]	binding result (Human ALK F1174L)	binding result [3]
B1	no binding	binds	0.56	0.064			
B2			0.872	0.063	binds	binds	binds
B3			1.01	0.064			
